Test results published in article PMC3915908 (Cell Research, 2013).

T1: C-terminal domain of Pat1 (Pat1C), wild type (S. cerevisiae, UniProt P25644 422-796)
T1 sequence: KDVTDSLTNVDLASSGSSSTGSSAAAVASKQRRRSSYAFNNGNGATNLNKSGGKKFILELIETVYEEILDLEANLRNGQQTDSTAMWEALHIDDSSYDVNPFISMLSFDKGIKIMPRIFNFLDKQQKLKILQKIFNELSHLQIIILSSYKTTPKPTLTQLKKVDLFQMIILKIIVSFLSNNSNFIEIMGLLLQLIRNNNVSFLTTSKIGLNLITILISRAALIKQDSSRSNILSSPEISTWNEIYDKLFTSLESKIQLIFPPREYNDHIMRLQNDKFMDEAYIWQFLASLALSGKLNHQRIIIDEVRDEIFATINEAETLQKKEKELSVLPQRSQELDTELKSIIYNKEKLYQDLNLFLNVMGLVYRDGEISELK


Legend:
[1] = target: T1, C-terminal domain of Pat1 (Pat1C), wild …; test: crystal structure
[2] = target: T1, C-terminal domain of Pat1 (Pat1C), wild …; test: native gel or EMSA

binding result [1]	binding result [2]	Binder
binds		Lsm2 (natural protein) MLFFSFFKTLVDQEVVVELKNDIEIKGTLQSVDQFLNLKLDNISCTDEKKYPHLGSVRNIFIRGSTVRYVYLNKNMVDTNLLQDATRREVMTERK
	binds	Lsm2-3 subcomplex, wild type (complex) chain 1: MLFFSFFKTLVDQEVVVELKNDIEIKGTLQSVDQFLNLKLDNISCTDEKKYPHLGSVRNIFIRGSTVRYVYLNKNMVDTNLLQDATRREVMTERK chain 2: METPLDLLKLNLDERVYIKLRGARTLVGTLQAFDSHCNIVLSDAVETIYQLNNEELSESERRCEMVFIRGDTVTLISTPSEDDDGAVEI
